These results are taken from PMC2843395 (Journal of molecular biology, 2010).

Like-named read-outs stand apart in the source and are kept apart here. *: point of attachment. TAMRA = 5-carboxytetramethylrhodamine, CN(C)c1ccc2c(-c3ccc(C(=O)*)cc3C(=O)[O-])c3ccc(=[N+](C)C)cc-3oc2c1

B2: S100B (wild-type, recombinant) (natural protein, bovine)
chain: MSELEKAVVALIDVFHQYSGREGDKHKLKKSELKELINNELSHFLEEIKEQEVVDKVMETLDSDGDGECDFQEFMAFVAMITTACHEFFEHE

For one series, the target named is TAMRA-TRTK12-am. As to the kind of experiment: fluorescence polarisation.
The target of series [1] is S100B (Rattus norvegicus) (UniProt P04631). Particulars: cited from earlier work.
The next series deals with E72A mutant of S100B. The series can be described thus: fluorescence polarisation.
The target in series [2] is T1, S100B (tight site, EF2) (Bos taurus, UniProt P02638).
T1 sequence (P02638 1-92): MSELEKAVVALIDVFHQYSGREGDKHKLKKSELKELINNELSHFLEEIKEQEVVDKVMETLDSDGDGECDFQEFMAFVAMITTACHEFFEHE
Particulars: p53^367–388; ref [21]; cited from earlier work.

The target in series [3] is T1, S100B (tight site, EF2). Particulars: p53^367–388; ref [21]; cited from earlier work. The source holds these as a separate data set.
Series [4] concerns the target B2. The series can be described thus: fluorescence polarisation.
Series [5] addresses B2. The series can be described thus: crystal structure.
Series [6] concerns the target B2. The series can be described thus: fluorescence polarisation. The source holds these as a separate data set.
The series “crystal structure” concerns the molecule itself. As to the kind of experiment: crystal structure.
The target in series [7] is B2. As to the kind of experiment: fluorescence polarisation. This is another data set of the same source.
The target in series [8] is B2. As to the kind of experiment: fluorescence polarisation. The source holds these as a separate data set.

E72A mutant of S100B (natural protein): the Kd in the series with TAMRA-TRTK12-am amounted to 16800 nM. For S100B (from UniProt P04631), the Kd in series [1] is < 1 nM. In the case of “TRTK-12 peptide (derived from the actin capping protein CapZ, residues 265-276)”, in the series with E72A mutant of S100B, the Kapp is 110 µM and the Kd came to 3200 nM. On to “p53^367–388: peptide derived from the negative regulatory domain of p53 (residues 367–388)”, for which, in the series with S100B (tight site, EF2) [2], the “Fold increase in Ca2+ affinity of S100B EF2 with p53 peptide bound” value is recorded as 3 fold. Also, the “Fold increase in Mn2+ binding of S100B with p53 peptide bound” value with S100B (tight site, EF2) [3] is 3 fold.

B1: TRTK-12 peptide (derived from the actin capping protein CapZ, residues 265-276) (peptide)
peptide: TRTKIDWNKILS
For the molecule B1, the results for the Kd in series [4] and in series [6] were 2900 ± 500 nM and 3000 ± 1000 nM, respectively. The “stoichiometry N” value in series [5] was found to be 1 per S100B subunit.

With B2, the “stoichiometry N” value in the series “crystal structure” was 2.

B3: TAMRA-TRTK12-am (peptide)
peptide: {TAMRA}-TRTKIDWNKILS-NH2
SMILES: CC[C@H](C)[C@H](NC(=O)[C@H](CCCCN)NC(=O)[C@H](CC(N)=O)NC(=O)[C@H](Cc1c[nH]c2ccccc12)NC(=O)[C@H](CC(=O)O)NC(=O)[C@@H](NC(=O)[C@H](CCCCN)NC(=O)[C@@H](NC(=O)[C@H](CCCNC(=N)N)NC(=O)[C@@H](NC(=O)c1ccc(-c2c3ccc(=[N+](C)C)cc-3oc3cc(N(C)C)ccc23)c(C(=O)[O-])c1)[C@@H](C)O)[C@@H](C)O)[C@@H](C)CC)C(=O)N[C@@H](CC(C)C)C(=O)N[C@@H](CO)C(N)=O
With B3, the Kd in [7] came out at 1200 ± 200 nM; in series [8], 6000 ± 2000 nM.
